In patent US20050069542A1 (Human Genome Sciences, published 2005):
Where a chain is given by its changes, count along the chain named.

T1: flag-tagged soluble TL3 (amino acids 105-251 of SEQ ID NO:234) (Homo sapiens (Human), UniProt O75888 105-250)
T1 construct: Heterologous flag-tagged control protein, immobilized in the ELISA; also called flagged tagged TL-3; not shown: Flag tag
T1 sequence: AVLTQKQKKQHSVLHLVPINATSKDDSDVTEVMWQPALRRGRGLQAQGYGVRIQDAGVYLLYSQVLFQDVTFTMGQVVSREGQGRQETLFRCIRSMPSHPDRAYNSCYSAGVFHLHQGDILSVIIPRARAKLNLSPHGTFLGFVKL

B1: GMBC609 (scFv)
scFv: QVQLVESGGGLVKPGESLRLSCEASGFEFNYAWMSWVRQAPGKGLEWVGRSRSEASGGTTDYAAPLQDRFTISRDDSKNTLYLQVNSLKIEDTGVYFCKWEKSEYYGMDVWGRGTPVTVSSGGGGSGGGGSGGGGSQSVLTQPPSVSAAPGQKVTISCSGSTSNIGNNYVSWYQQHPGKAPKLMIYDVSKRPSGVPDRFSGSKSGNSASLDISGLQSEDEADYYCAAWDDSLSEFLFGTGTKLTVLG
B2: GMBC666 (scFv)
scFv: B1 scFv with Q1E, V12A, R113K, P116M
B3: GMBC641 (scFv)
scFv: EVQLVESGGGVVRPGRSLRLSCAASGFSFSSYGMHWVRQAPGKGLEWVSAISGSGGSTYYADSVKGRFTISRDNSKNTLYLQMNSLRAEDTAVYFCAKGGDRSFRAFDFWGQGTMVTVSSGGGGSGGGGSGGGGSSELTQDPAVSVALGQTVRITCQGDSLRSYYASWYQQKPGQAPVLVIYGKNNRPSGIPDRFSGSSSGNTASLTITGAQAEDEADYYCNSRDSSGNHVVFGGGTKLTVLG
B4: GMBC669 (scFv)
scFv: QVQLVESGGALVKPGGSLRLSCAASGFTFSDAWMNWVRQAPGKGLEWVGRIKSKGSGGTIDYAAPVKDRFTISRDDSKNTLYLQMNSLKTEDTALYYCTWDWDFYYGMNVWGQGTLVTVSSGGGGSGGGGSGGGGSQSVLTQPPSASGSPGQSVTISCTGTSSDVGGYNYVSWYQQHPGKAPKFMIYDVSKRPSGVSNRFSGSKSGNTASLTISGVQAEDEADYYCSSYTSASTVIFGGGTKLTVLG
B5: GMBC639 (scFv)
scFv: GVQLVQSGAEVKTPGASVKVSCKASGYTFTNHYMHWVRQAPGQGIEWVGVINPSGDGSSYAQTFQGRVTMTRDTSTSTVYMELRSLRSDDTAVYYCARDLFYDFWSDYYRNDQYYYMDVWGKGTLVTVSSGGGGSGGGGSGGGGSSELTQDPAVSVALGQAVRITCQGDSLRSYYASWYQQKPGQAPVLVIYGKNNRPSGIPDRFSGSSSGNTASLTITGAQAEDEADYYCNSRDSSGNHVVFGGGTKLTVLG
B6: GMBC646 (scFv)
scFv: GVQLVQSGAEVKKPGASVKVSCKASGYTFTSYYIHWVRQAPGQGLEWMGIINPSGGTTSYAQKFQGRVTMTRDTSTSTVYMELSSLRSEDTAMYYCARERFLRGMDVWGRGTMVTVSSGGGGSGGGGSGGGGSDIVMTQSPSTLSASVGDRVTITCRASQGISSWLAWYQQKPGRAPKVLIYKASTLESGVPSRFSGSGSGTDFTLTISSLQPEDFATYYCQQSYSTPWTFGQGTKLEIKR
B7: GMBC673 (scFv)
scFv: EVQLVESGGGLVQTGGSLRLSCAASGFPIGSHWMSWVRQSPGKGLEWVASIKQDGREKHFVDSVKGRFGISRDNAKDSLYLQMNSLRIEDTAVYYCARETYGGYYYYFMDVWGRGTLVTVSSGGGGSGGGGSGGGGSSELTQDPAVSVALGQTVRITCQGDSLRSYYASWYQQKPGQAPVLVIYGKNNRPSGIPDRFSGSSSGNTASLTITGAQAEDEADYYCQTWGPGIRVFGGGTKLTVLG
B8: GMBC606 (scFv)
scFv: EVQLVQSGGGVVQPGGSLRLSCAASGFTFSSYGMHWVRQAPGKGLEWVAFIRYDGSNKYYADSVKGRFTISRDNSKNTLYLQMNSLRAEDTAVYYCAKSSSFANAFDIWGQGTTVTVSSGGGGSGGGGSGGGGSSELTQDPAVSVALGQTVRITCQGDSLRSYYASWYQQKPGQAPVLVIYGKNNRPSGIPDRFSGSSSGNTASLTITGAQAEDEADYYCNSRDSSGNHVVFGGGTKLTVLG
B9: GMBC725 (scFv)
scFv: B8 scFv with S7T, R52L, F102S, N104S, G110R, G112R
B10: GMBC630 (scFv)
scFv: QVQLVESGGGLVQPGRSLRLPCAASGFTFSSYGMHWVRQAPGKGLEWVAVISYDGSNKYYADSVKGRFTISRDNSKNTLYLQMNSLRAEDTAVYYCAKATSLLNAFDIWGRGTMVTVSSGGGGSGGGGSGGGGSSELTQDPAVSVALGQTVRITCQGDSLRSYYASWYQQKPGQAPVLVIYGKNNRPSGIPDRFSGSSSGNTASLTITGAQAEDEADYYCNSRDSSGNHVVFGGGTKLTVLG
B11: GMBC642 (scFv)
scFv: QVQLQQSGAEVKKPGASVKVSCKASGYTFTIHYMHWVRQAPGQGLEWMGIINPGDGSTSYAQNFQGRVTMTRDTSTSTVYMELSSLRSEDTAVYYCARAGRTVTSHFDYWGRGTLATVSSGGGGSGGGGSGGGGSSELTQDPAVSVALGQTVRITCQGDSLRSYYASWYQQKPGQAPVLVIYGKNNRPSGIPDRFSGSSSGNTASLTITGAQAEDEADYYCNSRDSSGNHVVFGGGTKLTVLG
B12: GMBC655 (scFv)
scFv: EVQLVESGGGLVKPGGSLRLSCAASGFTFSSYGMSWIRQAPGKGQEWVSAISGSGGSAYYADSVKGRFTISRDNSKNTLYLQMNSLRAEDTAVYYCAKAYSSEDYWGRGTMVTVSSGGGGSGGGGSGGGGSNIQMTQSPSFLSASVGDRVTITCRASQGINNYLAWYQQKPGRAPKLLIYAASSLQSGVPSRFSGSGSGTDFTLTISSLQPDDFATYYCQQYSNYPLTFGGGTKLEIKR
B13: GMBC665 (scFv)
scFv: EVQLVETGGGLVKPGGSLRLSCAASGFTFSDAWMNWVRQAPGKGLEWVGRIKSKGSGGTIDYAAPVKDRFTISRDDSKNTLYLQMNSLKTEDTALYYCTWDWDFYYGMNVWGQGTMVTVSSGGGGSGGGGSGGGGSSELTQDPAVSVALGQTVRITCQGDSLRSYYASWYQQKPGQAPVLVIYGKNNRPSGIPDRFSGSSSGNTASLTITGAQAEDEADYYCNSRDSSGNHVVFGGGTKLTVLG
B14: GMBC668 (scFv)
scFv: EVQLVESGGGLVKPGGSLRLSCAASGFTFSDAWMNWVRQAPGKGLEWVGRIKSKGSGGTTDYAAPVKGRFTISRDDSENTLYLQMNSLKTEDTAVYYCTWDHSYYYDMAVWGRGTLVTVSSGGGGSGGGGSGGGGSSELTQDPAVSVALGQTVRITCQGDSLRSYYASWYQQKPGQAPVLVIYGKNNRPSGIPDRFSGSSSGNTASLTITGAQAEDEADYYCNSRDSSGNHVVFGGGTKLTVLG
B15: GMBC648 (scFv)
scFv: B13 scFv with E1Q, T7S, G55R, A144T
B16: GMBC632 (scFv)
scFv: B13 scFv with E1Q, E6Q, T7S, A24G, T28K, D61E, T71I, N79D, G107D, S197F
B17: GMBC657 (scFv)
scFv: QMQLMQSGGGLVKPGGSLRLSCAGSGFKFSDAWMNWVRQAPGKGLEWVGRIKSKGSGGTIEYAAPVKDRFIISRDDSKDTLYLQMNSLKTEDTALYYCTWDWDFYYGMNVWGQGTLVTVSSGGGGSGGGGSGGGGSSELTQDPAVSVALGQTVRITCQGDSLRSYYASWYQQKPGQAPVLVIYGKNNRPSGIPDRFSGSSSGNTASLTITGAQAEDEADYYCNSRDSSGNHVVFGGGTKLTVLG
B18: GMBC682 (scFv)
scFv: B13 scFv with E1Q, T7S, L11V, T28K, Q113R, M116L
B19: GMBC635 (scFv)
scFv: B13 scFv with T7S, F70Y, Q113K
B20: GMBC662 (scFv)
scFv: GVQLVQSGAEVKKPGSSVKVSCKASGGTFSSYTISWVRQAPGQGLEWMGRIIPILGIANYAQKFQGRVTITADKSTSTAYMELSSLRSEDTAVYYCAREKLRDFQHWGQGTLVTVSSGGGGSGGGGSGGGGSQSVLTQPASVSGSPGQSITISCTGTSSDVGGYNYVSWYQQHPGKAPKLMIYEGSKRPSGISNRFSGSKSGNTASLTISRLQAEDEADYYCSSYTTRSTRVFGGGTKLTVLG
B21: GMBC652 (scFv)
scFv: GVQLVQSGGVVVKPGGSLRLSCAASGFTFSDAWMNWVRQAPGKGLEWVGRIKSKGSGGTTDYAAPVKGRFTISRDDSENTLYLQMNSLKTEDTAVYYCTWDHSYYYDMAVWGRGTMVTASSGGGGSGGGGSGGGGSQSVLTQPASVSGSPGQSITISCTGTSSDVGGYNYVSWYQQHPGKAPKFMIYDVSKRPSGVSNRFSGSKSGNTASLTISGVQAEDEADYYCSSYTSASTVIFGGGTKLTVLG

Target: T1, flag-tagged soluble TL3 (amino acids …)
Assay: phage ELISA on immobilized flag-tagged soluble TL3
Method: The individual phage isolates in the panel of phage, each phage expressing a unique scFv that bound to flag-tagged GMAD, were tested to ensure specificity for GMAD using an ELISA assay. The scFvs were tested in an ELISA for their ability to bind a heterologous flag-tagged protein, in this case—immobilized soluble TL3 (amino acids 105-251 of SEQ ID NO:234, GenBank Accesion Number NP_{—}003799, also described in International Patent Application Publication Number WO97/33902 and WO2001/96528 which are herein incorporated by reference in their entireties).

Row | binding result | Binder
1 | no binding | B1
2 | no binding | B2
3 | no binding | B3
4 | no binding | B4
5 | no binding | B5
6 | no binding | B6
7 | no binding | B7
8 | no binding | B8
9 | no binding | B9
10 | no binding | B10
11 | no binding | B11
12 | no binding | B12
13 | no binding | B13
14 | no binding | B14
15 | no binding | B15
16 | no binding | B16
17 | no binding | B17
18 | no binding | B18
19 | no binding | B19
20 | no binding | B20
21 | no binding | B21
